Results reported in article PMC8543371 (Nature microbiology, 2021).
Substitutions are numbered along the chain they refer to. Names and notes keep the numbering of the source.

B1: AZD8895 P99V (heavy chain) (antibody, V domains shown)
VH: QMQLVQSGPEVKKPGTSVKVSCKASGFTFMSSAVQWVRQARGQRLEWIGWIVIGSGNTNYAQKFQERVTITRDMSTSTAYMELSSLRSEDTAVYYCAAVYCSSISCNDGFDIWGQGTMVTVSS
VL: not shown
B2: AZD8895 D108N (heavy chain) (antibody, V domains shown)
VH: B1 VH with V99P, D108N
VL: not shown
B3: AZD8895 P99N (heavy chain) (antibody, V domains shown)
VH: B1 VH with V99N
VL: not shown
B4: AZD8895 D108E (heavy chain) (antibody, V domains shown)
VH: B1 VH with V99P, D108E
VL: not shown
B5: AZD8895 D108A (heavy chain) (antibody, V domains shown)
VH: B1 VH with V99P, D108A
VL: not shown

What follows are binders tested against recombinant SARS-CoV-2 S 6P protein (SARS-CoV-2, Wuhan-Hu-1 reference …, UniProt P0DTC2, stabilised) (assay: ELISA).

Row | Binder | binding result
1 | B1 | binds
2 | B2 | binds
3 | B3 | binds
4 | B4 | binds
5 | B5 | binds
